Assay results reported in patent US20140186370A1.

Molecular target: vaccinia virus B5R 6xHis protein (baculovirus-expressed soluble extracellular domain) (vaccinia virus)

Hum IgG1 isotype control (antibody)
% inhibition: 0%
